Laboratory results as given in patent US20030216563.

GST:Weel^70, sequence (chain, as listed by the source): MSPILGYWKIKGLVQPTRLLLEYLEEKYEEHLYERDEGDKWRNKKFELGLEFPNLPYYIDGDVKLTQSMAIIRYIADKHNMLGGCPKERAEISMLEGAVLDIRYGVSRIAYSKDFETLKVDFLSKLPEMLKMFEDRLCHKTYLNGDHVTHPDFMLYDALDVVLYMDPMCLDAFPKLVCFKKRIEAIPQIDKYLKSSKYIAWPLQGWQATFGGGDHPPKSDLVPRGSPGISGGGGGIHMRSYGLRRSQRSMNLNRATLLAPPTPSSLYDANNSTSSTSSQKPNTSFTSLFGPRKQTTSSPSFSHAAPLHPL
GST:Weel^152, sequence (chain, as listed by the source): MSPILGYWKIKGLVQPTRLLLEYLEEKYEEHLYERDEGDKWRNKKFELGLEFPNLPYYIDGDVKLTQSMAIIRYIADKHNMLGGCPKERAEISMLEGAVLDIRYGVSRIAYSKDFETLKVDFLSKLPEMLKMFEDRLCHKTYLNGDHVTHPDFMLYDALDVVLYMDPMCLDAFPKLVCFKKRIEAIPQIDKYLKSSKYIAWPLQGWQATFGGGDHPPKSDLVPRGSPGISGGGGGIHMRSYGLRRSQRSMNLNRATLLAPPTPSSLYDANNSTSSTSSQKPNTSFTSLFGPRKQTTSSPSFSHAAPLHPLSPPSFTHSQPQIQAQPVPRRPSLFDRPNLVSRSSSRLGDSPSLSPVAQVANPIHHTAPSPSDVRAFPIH

B1: Cds1 (protein)
chain: MEEPEEATQATQEAPLHVSQNIAKQVVNNENVFMKLVMTRMLDGKTEVIPLTTDVHNGFWRFGRHKSCEVVLNGPRVSNFHFEIYQGHRNDSDESENVVFLHDHSSNGTFLNFERLAKNSRTILSNGDEIRIGLGVPKDEISFLCQVPVKHSRDSQKNMIKSENSHYEIIRTLGSGTFAVVKLAVEVNSGKWYAIKIINKRKILLTSSEKRATEMFQREIDILKSLHHPGVVQCHEIFENDDELFIVMEYVEGGDLMDFLIANGSIDEQDCKPLLKQLLETLLHLHKQGVTHRDIKPENILITNDFHLKISDFGLAKVIHGTGTFLETFCGTMGYLAPEVLKSKNVNLDGGYDDKVDIWSLGCVLYVMLTASIPFASSSQAKCIELISKGAYPIEPLLENEISEEGIDLINRMLEINPEKRISESEALQHPWFYTVSTHEHRTPPSSSEHEATEQLNSSS
in vitro phosphorylation, two-dimensional tryptic phosphopeptide map (GST:Weel^70): Cds1 purified from fission yeast phosphorylated GST:Weel^70 in vitro, producing a two-dimensional tryptic phosphopeptide map that was identical to a map made from GST:Weel^70 phosphorylated by its associated kinase
phosphorylation by bead-associated kinase with [gamma-32P]ATP (GST:Weel^152): GST:Weel^152 is phosphorylated by this kinase and another that is active prior to HU treatment
